Measured values published in publication PMC13107553.

Target: Bicarbonate Transporter Related protein-1 (BTR1), human (human) (UniProt Q8NBS3)
Test: cryo-EM structure; BTR1 in LMNG/CHS micelle buffer; 140 mmol/L KCl, pH 7.5, 3.25 Å; further structures in 11 buffer conditions (KCl, NaCl, NH4Cl, NH4Cl + NaCl, boric acid; varying pH), 13 states, inward- and outward-facing

Bicarbonate Transporter Related protein-1 (BTR1), human (from UniProt Q8NBS3 1-875) (natural protein)
stoichiometry N: 2
